Consider 17 sequences from the DeepSol protein solubility set.

The nature of this data set: soluble on expression in E. coli; label from the status in PepcDB or PDB records.
As for “MGSDKIHHHHHHMYKFNPQRIQIGISACLLGEKVRFDGGHKNSTYCNQEIKQFFDYVPICPEMAIGLGAPRKSIRLVRDGETILVQSGDGSLDVTDKLNEYSENKVEELDFLGGYLLCAKSPTCGMERVTEYKIGTNNGSKSGIGVFARKLMERYPLLPVEEEGRLHDMVLRENFFTRVYAYHDWHLMKHEGLTKHKLVKFHSRYKYLLMAHSPTWYRELGPIVANIEDLEQSATRYFEGFMTALKINATRKNHTSTLQHIQGYFKKHLSKEQKTELSEAIMKYREGLLPLLVPITLINHYLREFPTPYIEEQVYLNPHPEALKLRYAY”, the “soluble on expression in E. coli” value is “not soluble”.

Consider “MEVLHKPVLLRESVEFLTENGGKIYVDCTLGGGGHAKEILKKRKDIFLIGIDRDEEAIEIAKENLKEFEGRFSIYKANFKDLDLVLKEEGIDKVDGFLFDLGVSMYQLKGERGFTFQEDQPLDMRMDKEQTLTACKVVNNYPERELIRILKEYGEEKFAVRIAKAIVQRRKKKPIETTGELVDVILSVVPEYYKHGKIHPATRTFQAIRIEVNKELESLKEALEKTPYHFNSKGRLVVITFHSLEDRIVKHFIKEKEKEGIFRIITKKPVTPSEEEIRENPASRSAKLRVAEKI”, for which the “soluble on expression in E. coli” value was “soluble”.

Turning to “MFKEVGEPNFPKLEEEVLAFWKREKIFQKSVENRKGGPRYTVYEGPPTANGLPHVGHAQARSYKDLFPRYKTMRGYYAPRRAGWDTHGLPVELEVEKKLGLKSKREIEAYGIERFNQACRESVFTYEKEWEAFTERIAYWVDLENAYATLEPTYIESIWWSLKNLFDRGLLYRDHKVVPYCPRCGTPLSSHEVALGYKEIQDPSVYVRFPLKEPKKLGLEKASLLIWTTTPWTLPGNVAAAVHPEYTYAAFQVGDEALILEEGLGRKLLGEGTPVLKTFPGKALEGLPYTPPYPQALEKGYFVVLADYVSQEDGTGIVHQAPAFGAEDLETARVYGLPLLKTVDEEGKLLVEPFKGLYFREANRAILRDLRGRGLLFKEESYLHSYPHCWRCSTPLMYYATESWFIKNTLFKDELIRKNQEIHWVPPHIKEGRYGEWLKNLVDWALSRNRYWGTPLPIWVCQACGKEEAIGSFQELKARATKPLPEPFDPHRPYVDQVELACACGGTMRRVPYVIDVWYDSGAMPFASLHYPFEHEEVFRESFPADFIAEGIDQTRGWFNFLHQLGVMLFGSIAFKNVICHGLILYEMGQKMSKSKGNVVDPWDIIREFGADALRWYIYVSAPPEADRRFGPNLVRETVRDYFLTLWNVYSFFVTYANLDRPDLKNPPPPEKRPEMDRWLLARMQDLIQRVTEALEAYDPTTSARALRDFVVEDLSQWYVRRNRRRFWKNEDALDREAAYATLYEALVLVATLAAPFTPFLAEVLWQNLVRSVRPEAKESVHLADWPEADPALADEALVAQMRAVLKVVDLARAARAKSGVKTRTPLPLLLVTAPTALEREGLKRFAHEIAEELNVKEVRVLEPGEEILSYRVLPNLKLLGRKYGKLVPKIREALQRERERAAALALKGEAIPLEVEGEALTLLPEEVLLEAEAPKGYQALEKDGYVAALKVEVTEALRMEGLARDLIRLLQQARKDMGLKVSDRIRVGYEAEGPYLEALKRHGPWIAEEVLATAFGEGLFGGFEARVEDEEGKAVFHLARAE”, the “soluble on expression in E. coli” value was “soluble”.

For the sequence “MKGVSRHVFVRIVQAIIMKHLVYCFKLDNDEFNLKNKYKKYKPCVTRVYDDLNTIYRYISNNKIINLEHHHHHH”, the “soluble on expression in E. coli” value was “not soluble”.

As to “GSHMGQLGGEEWTRHGSFVNKPTRGWLHPNDKVMGPGVSYLVRYMGCVEVLQSMRALDFNTRTQVTREAISLVCEAVPGAKGATRRRKPCSRPLSSILGRSNLKFAGMPITLTVSTSSLNLMAADCKQIIANHHMQSISFASGGDPDTAEYVAYVAKDPVNQRACHILECPEGLAQDVISTIGQAFELRFKQYLR”, the “soluble on expression in E. coli” value is “soluble”.

For “FSDAFETAFFSVSNIGLHARAYKDKLFVHTASLRSGNPYKQVDLLVLDAKGETVLQGATDDNGNALLNYTLNAGHVLVSRNGRDISILPFNQPALDLSEFAVAGRENPWFDVFAWSGRDLYRPGEMLRISALLRDRDGKPVKPQPVFLRLKQPDGKTFRETRLQPAEQGYLEFTQKIPSDAPTGRWRVEFRTDPASKEAVQGLAVRVEEFLPERMKLELSSAQPVLRAKAPFTLTADAAYLYGAPAAGNRFTANLAVAVEQHPLDNMPGWFFGDATL”, the “soluble on expression in E. coli” value is on record as “not soluble”.

“MMQIDRNEKADAWLAHTQREQSGRLTIFLGAAPGVGKTYAMLTRAHELMQQGKQVVVGVVETHGRADTARLIAGLNVIPRRVVEYQDRKLEEMDLDQILHIKPEIVLVDELAHRNVPGSRHEYRWQDVNEILDAGINVYSTLNIQHLESLNDVVYQITGIRVTETVPDALLKRLKDIRLVDLPVPELLERMKHGKIYLDDMAPHALQGFFKPAHLTALRDLAIQTVAGQV”: the “soluble on expression in E. coli” value is listed as “not soluble”.

For the sequence “MSLLTSNLGYPRIGENREWKKALESFWANDTTEEQLLATMKELRLNHLRVQQEQEVDLIPVGDFTLYDHVLDMAVMFGIIPKRFLQQGDTPTLSTYFAMARGSKNAQACEMTKWYNTNYHYIVPELHDAAPRLTKNAPLEAYLEAKNELGIDGKPVILGPYSFVKLAKGYEEDKLQETIQSLLPLYIQVIQELVDAGARSIQVDEPSLVTSISAREMALVTRIYEQINEAIADAPLFLQTYFDAVTFYEEVVSLPVKGIGLDFVHGGAKNLEALRTFGFPEDKVLAAGIIDGRNIWISNLRERHELVHQLEQHVAKDRLVLQPSCSLLHVPVTTKREEKLDPTLLGVLAFANEKLTELHTLKQLAAGNEAEVKEALEANDDALAALEKSGWRSGAATSHNLENKKRPQSFNERRPLQEEKWQLPLLPTTTIGSFPQTKDVRRTRSLWRKGELSTVEYERTMKSYIEKWINIQEELGLDVLVHGEFERNDMVEFFGEKLDGFAFTANGWVQSYGSRCVKPPIIYGNVSFTEPMTVAETVYAQSLTDKPVKGMLTGPVTILNWSFVRDDLPLTVIAHQIAEALTHEVTALEEAGIEMIQIDEPAIREGLPLKAEDQQEYLDWAVSAFRASCAHVKATTQIHTHMCYSEFHEMIEAIDDLDADVISIETSRSHGEMISAFEKTTYEKGIGLGVYDIHSPRVPSEEEMLNVIRRALTVLPASLFWVNPDCGLKTRAEKETVAALKNMVAAARAAREELKTKAEGHHHHHH”, the “soluble on expression in E. coli” value is “soluble”.

Take “MTQLWVERTGTRRYIGRSTRGAQVLVGSEDVDGVFTPGELLKIALAACSGMASDQPLARRLGDDYQAVVKVSGAADRDQERYPLIEETMELDLSGLTEDEKERLLVVINRAVELACTVGRTLKSGTTVNLEVVDVGA”: the “soluble on expression in E. coli” value is on record as “not soluble”.

On to “MEPKVYKPPISKAIGLVVGSVLPVNPRDLEKMMRRLGIKVEQLSADEARIVLGSGETMVFRSPTVIVMRAKGQPPMVYLVGDYTVEKPREETAAEITEEDVALVAEQAGVSMEEARKALEESGGDIAEAILRLKGEE”, for which the “soluble on expression in E. coli” value is “not soluble”.

For the sequence “MRILVSCANGSGTSLMMMRSVEKAMKELGVPITKIHHCAISEGKSSASQYDVVFTPVNFLQMFQQAEKRGVTVIGIKNVMSAKEIQEKYMASDRYQKSE”, the “soluble on expression in E. coli” value is “not soluble”.

In the case of “MAVPPAYSDLGKSAKDIFSKGYGFGIVKLDLKTKSQNGVEFNTSGSTNTDTGKAAGSLETKYKLKDLGLSFNQKWNTDNMLTTEVSVEDQLAEGLKVALDTSFVPNTGKKSGKLKTSYKREFVNVSCDLDFEGPVVHSAAVLGYEGWLLGYLVAFDTAKSKLVQNNFALGYKTGDFQLHTNVNDGAEFGGSVYQKVSDQLETAVTLAWTAGSNNTRFGVAAKYQLDKDASLSAKVNNASLIGIGYTQSLRPGVKLTLSALVDGKNFNTGGHKVGLGFELEA”, the “soluble on expression in E. coli” value is recorded as “not soluble”.

Turning to “MQLSKFFQKPQLLFRVAQPKDKENILKFLDAHFAKEEPCARALKLSPETSRGIFTTTVTRCLNFPFSTVVLQENDEIAACLLASVWNRTDPIDSADFNSSGMPENLKLFVQFINSAHSNFWKIAPPNVNSIIHREIGSVAPQFTRKGIATRMVTTNMTKTNLKKYNIGGVLSETSSLANQIVLQKAGFKCLKELPYSAIVDSKGNRVLRPDDGTTSLCLNFKPIEEYENLPE”, the “soluble on expression in E. coli” value is listed as “not soluble”.

Turning to “EAHQIRRSGNYQPALWDSNYIQSLNTPYTEERHLDRKAELIVQVRILLKEKMEPVQQLELIHDLKYLGLSDFFQDEIKEILGVIYNEHKCFHNNEVEKMDLYFTALGFRLLRQHGFNISQDVFNCFKNEKGIDFKASLAQDTKGMLQLYEASFLLRKGEDTLELAREFATKCLQKKLDEGGNEIDENLLLWIRHSLDLPLHWRIQSVEARWFIDAYARRPDMNPLIFELAKLNFNIIQATHQQELKDLSRWWSRLCFPEKLPFVRDRLVESFFWAVGMFEPHQHGYQRKMAATIIVLATVIDDIYDVYGTLDELELFTDTFKRWDTESITRLPYYMQLCYWGVHNYISDAAYDILKEHGFFCLQYLRKSVVDLVEAYFHEAKWYHSGYTPSLDEYLNIAKISVASPAIISPTYFTFANASHDTAVIDSLYQYHDILCLAGIILRLPDDLGTSYFELARGDVPKTIQCYMKETNASEEEAVEHVKFLIREAWKDMNTAIAAGYPFPDGMVAGAANIGRVAQFIYLHGDGFGVQHSKTYEHIAGLLFEPYA”, the “soluble on expression in E. coli” value is reported as “soluble”.

Take “MTLLNSRRAAGAFATTLVASTLGLSGCTSVTSSATSSPEPPTKVAAAMQTTTGETSISNETSFNASRETSLTALGFLDYLDEEQRAALLGEGLDISTLTWANQVTALRVLESLFNEHAYELVSAVIQHVAQEPGDNPHHFLKFSPEPSTENSWELTLDGPTVGLKVTFDPDGQITFKDAHLGLSPAEVVSVTEALDTSYSESQIKKAAEQLVGSLNPTQQAALQGSGLRGAQLTEEQKTLFLKMTSNWIDLANGDSGSEQQEEIADTFSDTYIIWNEQKDGSAFFQMKGPELDFSYKESVPENAELSARGVPNIQTSFQSPLEHHHHHH”: the “soluble on expression in E. coli” value is given as “not soluble”.

On to “MSLNSMELLIIKERRIDYDGSAIRSHWAYRNFGILGDSLVVFRGKCNVKVEEMVDIEDLRLRKEIKGDDMVHYILELFWHPDILLASSLQKLLIARLVELLWNYGIEASRRGDDIYVNGRKLSISIATVSPVSIKIHIGLNVKTVGVPPGVDAIGLEELGIDPTEFMERSAKALVEEIEKVRKDSLKVRWVTEGHHHHHH”, for which the “soluble on expression in E. coli” value is given as “soluble”.

In the case of “MSLAPSNSLEICGDGVKNPTTFTRAQLEDMPQYQQVYSSINTWPSKKWYVGKGVHLSELLSLVGIKDDARLLKFTSQDGYTMTLTVKELLVDKRYYFPHFNDNKIGDGEGNIAGSSQGAELVEPIIALISVEGSNNPNYMNDLNTLVLMMGQRAVTEQTGNAFVKYLNKIEVLTSEVPKWDSPQANPGSGEVSAGTMIALSTARMDDDKIYYTTDGSTPNLNSPIYNWIAKRWWSARADILGTYNHPIGPINENTTIKAITIGPGKENSDVATFTYTVPVSKPASETSIVAPNEATNYPDQALEKPLQSEPKATLTDVQNHWAQKNINELIASGIAGGYPDSSFRPDNTITRAEFATMLVKAFNLQNQGGKVFADSEQHWAKEYISRATASGVVSGYDAENFGPDKLITREQMAVMISKAAKLVLKAEAMHFADSAGISEWAKEAVLAANQSGIVKGYPDNTIRPQGSATRAEAVTVIVNALTLKEGHHHHHH”, the “soluble on expression in E. coli” value is “soluble”.
